Experimental data as given in patent US20030148956A1 (PROCTER AND GAMBLE, published 2003).
Ends that are not written are not given here.

T1: CRF2R
T1 sequence (Q13324 whole entry, species assumed, looked up): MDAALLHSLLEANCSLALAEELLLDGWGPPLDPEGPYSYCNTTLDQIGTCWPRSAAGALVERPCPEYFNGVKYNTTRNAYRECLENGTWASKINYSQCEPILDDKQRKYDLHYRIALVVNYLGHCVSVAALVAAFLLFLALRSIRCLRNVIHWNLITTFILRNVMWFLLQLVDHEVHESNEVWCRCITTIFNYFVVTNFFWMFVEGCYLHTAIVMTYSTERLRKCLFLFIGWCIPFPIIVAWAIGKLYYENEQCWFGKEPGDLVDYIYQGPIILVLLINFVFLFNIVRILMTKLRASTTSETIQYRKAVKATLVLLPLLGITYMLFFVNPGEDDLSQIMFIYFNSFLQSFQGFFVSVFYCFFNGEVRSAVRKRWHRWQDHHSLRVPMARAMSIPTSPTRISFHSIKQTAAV


Key:
[1] = target: CRF1R; assay: cell-based or functional assay
[2] = target: T1, CRF2R; assay: cell-based or functional assay

| Binder | CRF1R EC50 [1] [nM] | CRF2R EC50 [2] [nM] | CRF1R Emax [1] [%] | CRF2R Emax [2] [%] |
| --- | --- | --- | --- | --- |
| IVLSLDVPIGLLQILLEQAKARAAREQATTNARILARV-NH2 [SEQ ID NO 127] | > 100 | 7.79 |  |  |
| ZGPPISIDLPFQLLRKMIEIEKQEKEKQQATNNRLLLATV (C-terminal amide) [SEQ ID NO 12] | 928 | 9.72 | 73 | 91 |
| ZGPPISIDLPFQLLRKMIEIEKQEKEKQQAAANRLLLDTV (C-terminal amide) [SEQ ID NO 15] | 85.3 | 6.56 | 86 | 97 |
| ZGPPISIDLPFQLLRKMIEIEKQEKEKQQATNNRLLLDTI (C-terminal amide) [SEQ ID NO 14] | 109 | 6.33 | 92 | 90 |
| ZGPPISIDLPFQLLRKMIEIEKQEKEKQQATTNRLLLDTI (C-terminal amide) [SEQ ID NO 13] | 97.7 | 3.88 | 69 | 79 |
| IVLSLEVPIGLLQILLEQARARAAREQATTNARILARV-NH2 [SEQ ID NO 120] | 100 | 69.9 | 7 | 100 |
| IVLSLDVPIGLLQILLEQEKQEAAREQATTNARILARV-NH2 [SEQ ID NO 125] | > 100 | 4.47 | 9 | 99 |
| IVLSLDVPIGLLQILLEQARAEAAREQATTNARILARV-NH2 [SEQ ID NO 122] | 1000 | 3.31 | 10.7 | 97 |
| IVLSLDVPIGLLQILLEQTRARAAREQATTNARILARV-NH2 [SEQ ID NO 128] | > 100 | 2.85 | 8 | 98 |
| IVLSLDVPIGLLQILLEQAKQEAAREQATTNARILARV-NH2 [SEQ ID NO 124] | > 100 | 3.49 | 6 | 94 |
| IVLSLDVPIGLLQILLEQTKARAAREQATTNARILARV-NH2 [SEQ ID NO 117] | 100 | 9.41 |  |  |
| IVLSLDVPIGLLQILLEQARQEAAREQATTNARILARV-NH2 [SEQ ID NO 123] | > 1000 | 3.49 | 9.6 | 93.8 |
| IVLSLDVPIGLLQILLEQEKQRAAREQATTNARILARV-NH2 [SEQ ID NO 115] | > 100 | 13.6 | 7 | 98 |
| IVLSLDVPIGLLQILLEQERQEAAREQATTNARILARV-NH2 [SEQ ID NO 118] | > 100 | 14.6 | 5 | 100 |
| IVLSLDVPIGLLQILLEQTRADAAREQATTNARILARV-NH2 [SEQ ID NO 126] | > 100 | 13 | 7 | 91 |
| IVLSLDVPIGLLQILLEQTKANAAREQATTVARILARV-NH2 [SEQ ID NO 116] | 100 | 100 | 4.8 | 26.4 |
| IVLSLDVPIGLLQILLEQERARAAREQATTNARILARV-NH2 [SEQ ID NO 119] | > 100 | 3.57 | 3 | 95 |

Second part, the binder after the results:

| CRF1R EC50 [1] [nM] | CRF2R EC50 [2] [nM] | CRF1R Emax [1] [%] | CRF2R Emax [2] [%] | Binder |
| --- | --- | --- | --- | --- |
| 295 | 9.45 | 100 | 51.5 | ZGPPISIDLPFQLLRKMIEIEKQEKEKQQATTNARILARV (C-terminal amide) [SEQ ID NO 148] |
| > 100 | > 100 | 6 | 76 | IVLSLDVPIGLLQILLEQAARAAREQATTNARILARV-NH2 [SEQ ID NO 135] |
| 43.5 | 9.08 | 85.3 | 77 | ZGPPISIDLSLELLRKMIEIEKQEKEKQQATTNARILARV (C-terminal amide) [SEQ ID NO 142] |
| 232 | 11.1 | 100 | 85.5 | ZGPPISIDLPLELLRKMIEIEKQEKEKQQATTNARILARV (C-terminal amide) [SEQ ID NO 143] |
| 103 | 8.2 | 100 | 84.5 | ZGPPISIDLPFHLLRKMIEIEKQEKEKQQATTNARILARV (C-terminal amide) [SEQ ID NO 146] |
| 1000 | 26.2 | 40.7 | 95.5 | ZGPPISIDLPIYLLRKMIEIEKQEKEKQQATTNARILARV (C-terminal amide) [SEQ ID NO 149] |
| 102 | 6.75 | 96 | 94 | ZGPPISIDLPFYLLRKMIEIEKQEKEKQQATTNARILARV (C-terminal amide) [SEQ ID NO 147] |
| 196 | 7.8 | 91.3 | 69 | ZGPPISIDLPLHLLRKMIEIEKQEKEKQQATTNARILARV (C-terminal amide) [SEQ ID NO 145] |
| 567 | 9.16 | 100 | 85.5 | ZGPPISIDLPLQLLRKMIEIEKQEKEKQQATTNARILARV (C-terminal amide) [SEQ ID NO 144] |
| > 100 | 42.6 | 4 | 60 | IVLSLDVPIGLLQILLEQAAAREQATTNARILARV-NH2 [SEQ ID NO 139] |
| > 100 | > 100 | 7 | 19 | IVLSLDVPIGLLQILLEQAAAAREQATTNARILARV-NH2 [SEQ ID NO 134] |
| > 100 | 36.9 | 4 | 100 | IVLSLDVPIGLLQILLEQRARAAREQATTNARILARV-NH2 [SEQ ID NO 137] |
| > 100 | 3.83 |  |  | IVLSLDVPIGLLQILLEQTKARAAREQATTNARILARV-NH2 [SEQ ID NO 129] |
| > 100 | 7.53 | 8 | 88 | IVLSLDVPIGLLQILLEQEKEKKRKETNARILARV-NH2 [SEQ ID NO 132] |
| > 100 | 59 | 5 | 46 | IVLSLDVPIGLLQILLEQAAREQATTNARILARV-NH2 [SEQ ID NO 138] |
| > 100 | 5.25 | 8 | 91 | IVLSLDVPIGLLQILLEQAKADAAREQATTNARILARV-NH2 [SEQ ID NO 131] |
| > 100 | > 100 | 7 | 29 | IVLSLDVPIGLLQILLEQARAAAREQATTNARILARV-NH2 [SEQ ID NO 141] |
| > 100 | 23.4 | 8 | 68 | IVLSLDVPIGLLQILLEQRAAREQATTNARILARV-NH2 [SEQ ID NO 136] |
| > 100 | 8.57 | 9 | 92 | IVLSLDVPIGLLQILLEQARADAAREQATTNARILARV-NH2 [SEQ ID NO 130] |
| > 100 | 12.2 | 4 | 88 | IVLSLDVPIGLLQILLEQRRAAREQATTNARILARV-NH2 [SEQ ID NO 133] |
